Data set [1] addresses T1, rPdxR (Sco1417) (Streptomyces coelicolor A3(2) M145) (UniProt Q9RKX6).
T1 sequence: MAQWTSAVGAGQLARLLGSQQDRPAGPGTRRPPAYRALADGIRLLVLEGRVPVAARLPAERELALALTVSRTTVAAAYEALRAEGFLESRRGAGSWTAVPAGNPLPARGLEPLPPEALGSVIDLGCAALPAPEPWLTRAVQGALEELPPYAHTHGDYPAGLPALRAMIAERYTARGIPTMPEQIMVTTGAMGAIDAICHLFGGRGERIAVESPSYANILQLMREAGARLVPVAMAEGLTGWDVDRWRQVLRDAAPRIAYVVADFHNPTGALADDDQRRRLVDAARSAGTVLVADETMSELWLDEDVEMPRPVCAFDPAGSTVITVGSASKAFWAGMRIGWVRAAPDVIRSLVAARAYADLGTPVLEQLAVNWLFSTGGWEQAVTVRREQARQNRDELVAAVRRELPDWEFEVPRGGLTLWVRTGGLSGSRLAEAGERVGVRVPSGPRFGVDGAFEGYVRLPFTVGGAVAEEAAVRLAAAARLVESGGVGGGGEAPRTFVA
Nature of the data set: competition.

In data set [2] the target is T2, rPdxR (Sco1417) (Streptomyces coelicolor A3(2) M145, UniProt Q9RKX6).
T2 sequence: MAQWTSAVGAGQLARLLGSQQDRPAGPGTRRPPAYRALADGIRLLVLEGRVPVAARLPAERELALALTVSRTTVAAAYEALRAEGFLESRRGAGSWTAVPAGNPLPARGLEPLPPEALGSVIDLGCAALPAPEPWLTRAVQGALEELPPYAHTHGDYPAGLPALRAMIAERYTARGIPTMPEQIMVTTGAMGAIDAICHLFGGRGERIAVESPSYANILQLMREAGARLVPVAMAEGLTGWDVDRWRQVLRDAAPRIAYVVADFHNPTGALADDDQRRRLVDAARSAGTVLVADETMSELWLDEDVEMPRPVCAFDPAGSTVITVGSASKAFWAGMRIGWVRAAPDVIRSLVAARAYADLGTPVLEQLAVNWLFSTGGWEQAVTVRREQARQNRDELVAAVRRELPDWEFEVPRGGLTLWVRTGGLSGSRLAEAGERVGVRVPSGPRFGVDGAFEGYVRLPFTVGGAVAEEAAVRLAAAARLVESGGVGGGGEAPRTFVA
Nature of the data set: EMSA.

For data set [3], the target named is T2, rPdxR (Sco1417). Nature of the data set: EMSA. This is another data set of the same source.

Like-named read-outs stand apart in the source and are kept apart here.

Consider “TGCTGGACACGGGTACCTCACTGGGGAGAAGGGGGGTTGTGCAGCAACGAGGAAACGTGAGGTGAGCAGGCCACAGCAAGGGCCAATGAGAAGGCGGTGGATCGTTTTCGTCCCCCGGGCGCTACGCCGCCCGCTCCACCAGGGCGGCCGGCGACTCGTCGTCCATCTCGAAGGCCAGCGGGAAGGGCGCGTGCCCGGCGAGGCGGAACCAGCGGACCTTGCGGTGCTCGCGCAGCCTGCGGGCCGCCCCCACCGCGTCGTTGTGGAAGCGGCGG (double strand) [pdxSTp]”, for which, in data set [1], the binding result is given as “binds”.

As for “ACTGCGCCATGGAAATCAGTCCACCTTCCCCAAATTGGCCATGGTTGACTCTTCTTCTGAAGCCACAGGGTGTCATGTGGCAGTCCACTACCACCACCCCAGGGGGCACTTCTTGTCCAGGCAGTCCAGACAGTCGAGGCAATCCGGGCAGTCCGGATGGTCCGGGCGACTCGCGCGGCGGCTGACGCAGCTCTACGGCGGTCTCGTCCTGTACGGAGCGAGTTCGGCGCTGCTGGTCAGGTCCGGGCTCGGCCTCGAACCGTGGAACGTGCTGCACCAG (double strand) [pdxRp]”, in data set [1], the binding result is on record as “binds”.

B1: ST (dsDNA)
DNA 1: ACGAAAACGATCCACCGCCTTCTCATTGGCCCTTGCTGTGGCCTGCT
DNA 2: AGCAGGCCACAGCAAGGGCCAATGAGAAGGCGGTGGATCGTTTTCGT
For B1, the binding result with rPdxR (Sco1417) [2] is “binds”.

B2: ST2a (dsDNA)
DNA 1: CTTCTCATTGGCCCTTGCTAAAACCTGCTC
DNA 2: GAGCAGGTTTTAGCAAGGGCCAATGAGAAG
With B2, the binding result in the data set with rPdxR (Sco1417) [3] was “no binding”.

B3: R1 (dsDNA)
DNA 1: TGGGGTGGTGGTAGTGGACTGCCACATGACACCCTGTGGCTTCAGAA
DNA 2: TTCTGAAGCCACAGGGTGTCATGTGGCAGTCCACTACCACCACCCCA
B3: the binding result with rPdxR (Sco1417) [2] is given as “binds”.

B4: R2 (dsDNA)
DNA 1: TCAACCATGGCCAATTTGGGGAAGGTGGACTGATTT
DNA 2: AAATCAGTCCACCTTCCCCAAATTGGCCATGGTTGA
As for B4, the binding result with rPdxR (Sco1417) [2] is “binds”.

B5: ST2b (dsDNA)
DNA 1: CTTCTCAAAAACCCTTGCTGTGGCCTGCTC
DNA 2: GAGCAGGCCACAGCAAGGGTTTTTGAGAAG
On to B5, for which the binding result with rPdxR (Sco1417) [3] was “no binding”.

B6: ST2 (dsDNA)
DNA 1: CTTCTCATTGGCCCTTGCTGTGGCCTGCTC
DNA 2: GAGCAGGCCACAGCAAGGGCCAATGAGAAG
As to B6, in the data set with rPdxR (Sco1417) [2], the binding result is reported as “binds”.

These data come from article PMC12220430.
